Measured values: patent publication US20260193335A1 (ZOETIS SERVICES, published 2026)
Where two headings read alike, the source gives them in different places.

T1: NGF (target of felinized anti-NGF antibodies mAb2 and mAb3)
T1 chain: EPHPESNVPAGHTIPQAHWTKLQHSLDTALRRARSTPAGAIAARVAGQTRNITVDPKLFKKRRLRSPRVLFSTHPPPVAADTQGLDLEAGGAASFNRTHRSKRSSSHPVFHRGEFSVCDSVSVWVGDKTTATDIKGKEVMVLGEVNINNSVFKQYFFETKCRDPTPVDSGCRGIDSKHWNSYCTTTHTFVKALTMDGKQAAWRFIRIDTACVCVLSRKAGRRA


Tests used:
[1] = target: Feline FcRn (complex of FcRn-α subunit and β-microglobulin, C-terminal His tag) (feline); test: SPR Biacore, FcRn amine-coupled on CM5, pH 6
Feline FcRn (complex of FcRn-α subunit and β-microglobulin, C-terminal His tag) (feline), sequence (chain, as listed by the source, chain 1 of 2): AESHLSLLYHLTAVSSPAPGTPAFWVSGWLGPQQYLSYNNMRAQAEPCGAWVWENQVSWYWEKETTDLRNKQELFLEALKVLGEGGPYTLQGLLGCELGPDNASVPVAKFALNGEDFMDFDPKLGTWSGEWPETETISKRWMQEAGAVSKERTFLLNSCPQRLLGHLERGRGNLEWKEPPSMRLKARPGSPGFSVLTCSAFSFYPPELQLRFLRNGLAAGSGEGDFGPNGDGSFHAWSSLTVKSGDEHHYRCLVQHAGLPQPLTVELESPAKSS
Feline FcRn (complex of FcRn-α subunit and β-microglobulin, C-terminal His tag) (feline), sequence (Q5MGS7 21-118, chain 2 of 2): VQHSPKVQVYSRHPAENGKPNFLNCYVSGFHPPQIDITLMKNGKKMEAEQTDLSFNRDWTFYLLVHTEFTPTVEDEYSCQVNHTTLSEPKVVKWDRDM

[2] = target: Feline FcRn (complex of FcRn-α subunit and β-microglobulin, C-terminal His tag) (feline); test: SPR Biacore, FcRn amine-coupled on CM5, pH 7.2
[3] = target: NGF (target of felinized anti-NGF antibodies mAb2 and mAb3); test: cell-based or functional assay
[4] = target: NGF (target of felinized anti-NGF antibodies mAb2 and mAb3); test: SPR Biacore T200, target amine-coupled, 15 C
[5] = target: TGFβ (target of felinized anti-TGFβ antibody mAb6); test: cell-based or functional assay
[6] = target: TGFβ (target of felinized anti-TGFβ antibody mAb6); test: SPR Biacore T200, target amine-coupled, 15 C
[7] = target: T2, Feline FcRn (complex of FcRn-α subunit and β-microglobulin, C-terminal His tag) (feline, UniProt A0ABI7ZNY9 23-296; Q5MGS7 21-118); test: SPR Biacore, biotin-FcRn on SA chip, pH 6; pH 6; Table 5A run (biotin-FcRn on SA chip), ID 88
T2 construct: treated here as one molecule
Method: Feline FcRn was isolated, prepared and mutant Fc IgGs were assayed against feline FcRn according to Strietzel et. al., discussed above. Standard PCR was used to amplify feline FcRn-α subunit and β-microglobulin. FcRn-α subunit and β-microglobulin were co-transfected into HEK 293 cells and the FcRn complex was purified by IMAC affinity purification via the c-terminal His tag. FcRn complex was biotin labeled through BirA enzymatic biotinylatoin reaction. KD's were measured by Biacore T200 (GE Healthcare, Pittsburgh, PA, USA) or Biacore 8K (Cytiva, Marlborough, MA, USA) using a SA sensor chip.
FcRn was captured on the surface of the sensor using a modified SA capture method. 10 mM MES; 150 mM NaCl; 0.005% Tween20; 0.5 mg/mL BSA; pH6 was used as capture, method running buffer and titrations. 1×HBS-P, 0.5 mg/mL BSA; pH7.4 was also used for method running buffer and titrations. Fc mutant IgGs were flowed over receptor surfaces and affinity was determined using T200 evaluation software or Biacore Insight Evaluation software. Blank runs containing buffer only were subtracted out from all runs. Flow cells were regenerated using 50 mM Tris pH8 or pH9. Runs were performed at 15° C.

[8] = target: T1, NGF (target of felinized anti-NGF …); test: SPR Biacore T200, target amine-coupled, 15 C
Method: Affinity for each mAb was assessed by Biacore and the IC50 was determined via a suitable cell based potency assay.
Flow cell 1 was used as an internal reference to correct running buffer effects. Antibody binding was measured at 15° C. with a contact time of 250 s and flow rate of 30 μl/min. The dissociation period was 300 s. Regeneration was performed with regeneration buffers (10 mM Glycine pH1.5 and 10 mM NaOH) and flow rate at 20 μl/min for 60 s each. Running/dilution buffer (1×HBS-EP, GE Healthcare, BR-1006-69, 10× including 100 mM HEPES, 150 mM NaCl, 30 mM EDTA and 0.5% v/v surfactant P20, pH7.4, 1:10 in filtered MQ H2O) was used as negative control at the same assay format.
Data were analyzed with Biacore T200 Evaluation software by using the method of double referencing. The resulting curve was fitted with the 1:1 binding model. No differences in binding affinities or IC50 were observed between wild-type and 5434 and 5428 mutant IgGs (Table 1).

[9] = target: T2, Feline FcRn (complex of FcRn-α subunit …); test: SPR Biacore, FcRn amine-coupled on CM5, pH 7.2; pH 7.2; Table 2 run (FcRn amine-coupled on CM5)
Method: (§1) Feline FcRn was isolated, prepared and mutant Fc IgGs were assayed against feline FcRn according to Strietzelg et. al. Standard RACE PCR was used to amplify feline FcRn-α subunit and β-microglobulin. FcRn-α subunit and β-microglobulin were co-transfected into HEK 293 cells and the FcRn complex was purified by IMAC affinity purification via the c-terminal His tag. KD's were measured by Biacore 3000 or Biacore T200 (GE Healthcare, Pittsburgh, PA, USA) using a CM5 sensor chip.
(§2) FcRn was immobilized on the surface of the sensor using the standard amine immobilization method to reach the desired surface density. HBS-EP was used as the immobilization running buffer and 10 mM MES; 150 mM NaCl; 0.005% Tween20; 0.5 mg/mL BSA; pH6 and pH7.2 and PBS; 0.005% Tween20; 0.5 mg/mL BSA; pH7.4 were used for method running buffers and titrations. Fc mutant IgGs were flowed over receptor surfaces and affinity was determined using Scrubber2 software analysis (BioLogic Software Pty, Ltd., Campbell, Australia) or T200 evaluation software (Table 2). Blank runs containing buffer only were subtracted out from all runs. Flow cells were regenerated using 50 mM Tris pH8. Runs were performed at 15° C.

[10] = target: T1, NGF (target of felinized anti-NGF …); test: cell-based or functional assay
[11] = target: T2, Feline FcRn (complex of FcRn-α subunit …); test: SPR Biacore, FcRn amine-coupled on CM5, pH 6; pH 6; Table 2 run (FcRn amine-coupled on CM5)
Method: as §1, §2

[12] = target: T2, Feline FcRn (complex of FcRn-α subunit …); test: SPR Biacore, FcRn amine-coupled on CM5, pH 7.2
Method: as §1, §2

[13] = target: T2, Feline FcRn (complex of FcRn-α subunit …); test: SPR Biacore, biotin-FcRn on SA chip, pH 6
Summary of the method: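 Runs at 15° C used either pH 6 buffer (10 mM MES, 150 mM NaCl, 0.005% Tween20, 0.5 mg/mL BSA) or pH 7.4 buffer (1×HBS-P, 0.5 mg/mL BSA), with Fc mutant IgGs as analytes. Receptor was biotinylated feline FcRn complex (co-expressed in HEK 293) on an SA chip. Affinities from blank-subtracted SPR data.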

[14] = target: T2, Feline FcRn (complex of FcRn-α subunit …); test: SPR Biacore, FcRn amine-coupled on CM5, pH 6
Method: as §1, §2

Kd [1] [nM] | Kd [2] [nM] | IC50 (cell based potency assay) [5] [nM] | Kd [6] [nM] | Kd [8] [nM] | Binder | also measured
120 | – | 9 | 0.00375 | – | mAb6 (felinized anti-TGFβ antibody of Tables 1 and 2) wild-type, feline IgG1a (antibody, part only; not given: Anti-TGFβ variable domains, antibody unnamed, part only) heavy, part: ASTTAPSVFPLAPSCGTTSGATVALACLVLGYFPEPVTVSWNSGALTSGVHTFPAVLQASGLYSLSSMVTVPSSRWLSDTFTCNVAHPPSNTKVDKTVRKTDHPPGPKPCDCPKCPPPEMLGGPSIFIFPPKPKDTLSISRTPEVTCLVVDLGPDDSDVQITWFVDNTQVYTAKTSPREEQFNSTYRVVSVLPILHQDWLKGKEFKCKVNSKSLPSPIERTISKAKGQPHEPQVYVLPPAQEELSRNKVSVTCLIKSFHPPDIAVEWEITGQPEPENNYRTTPPQLDSDGTYFVYSKLSVDRSHWQRGNTYTCSVSHEALHSHHTQKSLTQSPGK | –
15 | 230 | 10 | 0.0843 | – | mAb6 (felinized anti-TGFβ antibody of Tables 1 and 2) S428L, feline IgG1a (antibody, part only; not given: Anti-TGFβ variable domains, antibody unnamed, part only) heavy, part: ASTTAPSVFPLAPSCGTTSGATVALACLVLGYFPEPVTVSWNSGALTSGVHTFPAVLQASGLYSLSSMVTVPSSRWLSDTFTCNVAHPPSNTKVDKTVRKTDHPPGPKPCDCPKCPPPEMLGGPSIFIFPPKPKDTLSISRTPEVTCLVVDLGPDDSDVQITWFVDNTQVYTAKTSPREEQFNSTYRVVSVLPILHQDWLKGKEFKCKVNSKSLPSPIERTISKAKGQPHEPQVYVLPPAQEELSRNKVSVTCLIKSFHPPDIAVEWEITGQPEPENNYRTTPPQLDSDGTYFVYSKLSVDRSHWQRGNTYTCSVLHEALHSHHTQKSLTQSPGK | –
– | – | – | – | 0.00132 | mAb3 (felinized anti-NGF antibody ZTS-768) S434H, feline IgG1a (antibody, also called mAb3 S434H; mAb3 ID No. 00) heavy: DVQLVESGGDLVKPGGSLRLTCVASGFTYSNYWMHWVRQAPGKGLQWVARIDPYGGGTKHNEKFKRRFTISRDNAKNTLYLQMNSLKTEDTATYYCVRSGYDYYFDVWGQGTLVTVSSASTTAPSVFPLAPSCGTTSGATVALACLVLGYFPEPVTVSWNSGALTSGVHTFPAVLQASGLYSLSSMVTVPSSRWLSDTFTCNVAHPPSNTKVDKTVRKTDHPPGPKPCDCPKCPPPEMLGGPSIFIFPPKPKDTLSISRTPEVTCLVVDLGPDDSDVQITWFVDNTQVYTAKTSPREEQFNSTYRVVSVLPILHQDWLKGKEFKCKVNSKSLPSPIERTISKAKGQPHEPQVYVLPPAQEELSRNKVSVTCLIKSFHPPDIAVEWEITGQPEPENNYRTTPPQLDSDGTYFVYSKLSVDRSHWQRGNTYTCSVSHEALHHHHTQKSLTQSPGK light: EIQMTQSPSSLSASPGDRVTITCRASENIYSFLAWYQQKPGKVPKLLIYNANTLAEGVPSRFSGSGSGTDFTLTISSLEPEDAATYYCQHHFGTPFTFGSGTKLEIKRSDAQPSVFLFQPSLDELHTGSASIVCILNDFYPKEVNVKWKVDGVVQNKGIQESTTEQNSKDSTYSLSSTLTMSSTEYQSHEKFSCEVTHKSLASTLVKSFQRSECQRE | Kd [12]: 0.524 nM; Kd [13]: 2.6 nM; Kd [14]: 1.02 nM

Continued, binder first:

Binder | Kd [1] [nM] | Kd [2] [nM] | IC50 (cell based potency assay) [5] [nM] | Kd [6] [nM] | Kd [8] [nM] | also measured
mAb2 (felinized anti-NGF antibody) S428L, feline IgG1a (antibody, part only; not given: Anti-NGF heavy and light variable domains, part only) heavy, part: ASTTAPSVFPLAPSCGTTSGATVALACLVLGYFPEPVTVSWNSGALTSGVHTFPAVLQASGLYSLSSMVTVPSSRWLSDTFTCNVAHPPSNTKVDKTVRKTDHPPGPKPCDCPKCPPPEMLGGPSIFIFPPKPKDTLSISRTPEVTCLVVDLGPDDSDVQITWFVDNTQVYTAKTSPREEQFNSTYRVVSVLPILHQDWLKGKEFKCKVNSKSLPSPIERTISKAKGQPHEPQVYVLPPAQEELSRNKVSVTCLIKSFHPPDIAVEWEITGQPEPENNYRTTPPQLDSDGTYFVYSKLSVDRSHWQRGNTYTCSVLHEALHSHHTQKSLTQSPGK | 1.51 | 60 | – | – | – | IC50 (cell based potency assay) [3]: 0.58 nM; Kd [4]: 0.008 nM
mAb3 (felinized anti-NGF antibody ZTS-768) WT, feline IgG1a (antibody, The same holds for all IgG1a variants of mAb3; also called mAb3 WT; mAb3 ID No. 88) heavy: DVQLVESGGDLVKPGGSLRLTCVASGFTYSNYWMHWVRQAPGKGLQWVARIDPYGGGTKHNEKFKRRFTISRDNAKNTLYLQMNSLKTEDTATYYCVRSGYDYYFDVWGQGTLVTVSSASTTAPSVFPLAPSCGTTSGATVALACLVLGYFPEPVTVSWNSGALTSGVHTFPAVLQASGLYSLSSMVTVPSSRWLSDTFTCNVAHPPSNTKVDKTVRKTDHPPGPKPCDCPKCPPPEMLGGPSIFIFPPKPKDTLSISRTPEVTCLVVDLGPDDSDVQITWFVDNTQVYTAKTSPREEQFNSTYRVVSVLPILHQDWLKGKEFKCKVNSKSLPSPIERTISKAKGQPHEPQVYVLPPAQEELSRNKVSVTCLIKSFHPPDIAVEWEITGQPEPENNYRTTPPQLDSDGTYFVYSKLSVDRSHWQRGNTYTCSVSHEALHSHHTQKSLTQSPGK light: EIQMTQSPSSLSASPGDRVTITCRASENIYSFLAWYQQKPGKVPKLLIYNANTLAEGVPSRFSGSGSGTDFTLTISSLEPEDAATYYCQHHFGTPFTFGSGTKLEIKRSDAQPSVFLFQPSLDELHTGSASIVCILNDFYPKEVNVKWKVDGVVQNKGIQESTTEQNSKDSTYSLSSTLTMSSTEYQSHEKFSCEVTHKSLASTLVKSFQRSECQRE | – | – | – | – | 0.000582 | Kd [7]: 26 nM; Kd [9]: 8630 nM; IC50 (cell based potency assay) [10]: 0.036 nM; Kd [11]: 2.95 nM
